Assay results reported in PMC10954734, “Structure of antiviral drug bulevirtide bound to hepatitis B and D virus receptor protein NTCP” (Nature Communications, 2024).

Target: human Na+-taurocholate co-transporting polypeptide (NTCP), detergent-solubilized, 3C-cleaved (human) (UniProt Q14973)
Sequence (Q14973 whole entry): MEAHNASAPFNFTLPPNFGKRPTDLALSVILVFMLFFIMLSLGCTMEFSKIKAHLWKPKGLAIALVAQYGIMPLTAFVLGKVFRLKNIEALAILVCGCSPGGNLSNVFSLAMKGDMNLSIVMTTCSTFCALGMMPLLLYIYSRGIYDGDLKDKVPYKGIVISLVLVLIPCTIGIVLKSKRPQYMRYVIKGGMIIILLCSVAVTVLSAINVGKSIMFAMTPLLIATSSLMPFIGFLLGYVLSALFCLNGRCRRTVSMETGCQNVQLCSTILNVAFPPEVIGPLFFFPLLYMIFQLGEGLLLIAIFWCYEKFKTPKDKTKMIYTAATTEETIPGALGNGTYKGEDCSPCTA

Question: For bulevirtide (BLV) (peptide), which inhibition of 3H-taurocholate transport (1 uM TC, 8 min) into Flp-In T-Rex cells stably expressing NTCP at increasing concentrations of BLV; at high concentrations BLV fully abolished transport is on record?
Answer: The inhibition of 3H-taurocholate transport (1 uM TC, 8 min) into Flp-In T-Rex cells stably expressing NTCP at increasing concentrations of BLV; at high concentrations BLV fully abolished transport was 195 nM.
